The record followed here is the RNAGym collection of RNA variant scans (doi:10.1021/acssynbio.7b00057).

B1: Pistol ribozyme (parent)
chain: GGGUCGUUGUUCCAUAAUCGCGUGGAUAUGGCACGCAAGUUUCUACCGGGCACCGUAAAUGUCCGACUGGAGCCGUUCGGGCGGCUAUAAACAGACCUCAGGCCCGAAGCGUGGCGGCACCUGCCGCCGGUGGUAAAAAAGAUCGGAAGAGCACACGUCU

Variants of B1 are the subject of the data set. In words: aptazyme ON/OFF ratio, guanine; higher = stronger switching; co-transcriptional cleavage with and without guanine.
With U7C G9C C12U C13G, the “aptazyme ON/OFF ratio” value was 1.04.
To U7C G9A U10G C12A C13U belongs 1.19.
Next, U7C G9A U10G C12A C13G: 1.08; U7C G9A U10G C12A C13A: 1.15; U7C G9A U11C C12G C13A: 1.29.
Next, U7C G9A U11C C12G C13U: 1.18; U7C G9A U11C C12G C13G: 1.17; U7C G9A U11A C12U C13U: 1.3.
Take U7C G9A U11A C12U C13G: the “aptazyme ON/OFF ratio” value is 1.09.
Next, U7C G9A U11A C12U C13A: 1.07; U7C G9C U10C U11A C12G C13U: 1.14.
Consider U7C G9C U10C U11A C12G C13A, for which the “aptazyme ON/OFF ratio” value came out at 1.31.
Next, U7C G9C U10C U11A C12G C13G: 1.41; U7C G9C U10C U11C C12A: 1.03; U7C G9C U10C U11C C12U: 1.01.
U7C G9C U10C U11C C12G: the “aptazyme ON/OFF ratio” value came out at 1.03.
U7C G9C U10G U11A C12G C13U: the “aptazyme ON/OFF ratio” value was found to be 1.09.
To U7C G9C U10G U11A C12G C13A belongs 1.13; to U7C G9C U10G U11A C12G C13G, 1.11.
To U7C G9C U10G C12G C13G belongs 1.07.
Next, U7C G9C U10G C12G C13A: 1.11; U7C G9C U10G C12G C13U: 1.1; U7C G9A U10G U11G C13U: 1.17.
Turning to U7C G9A U10G U11G C13G, the “aptazyme ON/OFF ratio” value worked out at 1.05.
Next, U7C G9A U10G U11G C13A: 1.24.
To U7C G9C U10C U11G C12U C13U belongs 1.09.
To U7C G9C U10C U11G C12U C13G belongs 1.1.
For U7C G9C U10C U11G C12U C13A, the “aptazyme ON/OFF ratio” value was determined as 1.08.
To U7C G9A U10G U11A C12U C13U belongs 1.18.
To U7C G9A U10G U11A C12U C13A belongs 1.05.
Next, U7C G9A U10G U11A C12U C13G: 1.14; U7C G9A U11G C12A C13G: 1.25.
Turning to U7C G9A U11G C12A C13A, the “aptazyme ON/OFF ratio” value came out at 1.22.
Next, U7C G9A U11G C12A C13U: 1.14.
To U7C G9C U10G U11G C12G belongs 1.12.
To U7C G9C U10G U11G C12A belongs 1.11; to U7C G9C U10A U11C C13G, 1.03.
U7C G9C U10A U11C C13U: the “aptazyme ON/OFF ratio” value worked out at 1.02.
Next, U7C G9C U10A U11C C13A: 1.02; U7C G9C U10A U11C C12G: 1.26.
To U7C G9C U10A U11C C12U belongs 1.04.
Next, U7C G9C U10A U11C C12A: 1.07; U7C G9A U10G U11C C12U: 1.18; U7C G9A U10G U11C C12A: 1.28.
Turning to U7C G9A U10G U11C C12G, the “aptazyme ON/OFF ratio” value amounted to 1.32.
Next, U7C G9A U10C U11G C13A: 1.19.
To U7C G9A U10C U11G C13G belongs 1.22; to U7C G9A U10C U11G C13U, 1.45; to U7C G9A U11C C12U C13G, 1.02.
Next, U7C G9A U11C C12U C13A: 1.17; U7C G9A U11C C12U C13U: 1.11; U7C G9C U10A U11A C12G: 1.09.
On to U7C G9C U10A U11A C12A, for which the “aptazyme ON/OFF ratio” value was found to be 1.16.
Next, U7C G9C U10A U11A C12U: 1.05.
To U7C G9A U10G U11G C12G belongs 1.23; to U7C G9A U10G U11G C12A, 1.16; to U7C G9A U10G U11G C12U, 1.28.
To U7C G9C U10G C12U belongs 1.2; to U7C G9C U10G C12A, 1.12; to U7C G9C U10G C12G, 1.13.
U7C G9C U10C U11C C12G C13A: the “aptazyme ON/OFF ratio” value is 1.03.
Next, U7C G9C U10C U11C C12G C13G: 1.07; U7C G9C U10C U11C C12G C13U: 1.05; U7C G9C U10A C13G: 1.05.
For U7C G9C U10A C13A, the “aptazyme ON/OFF ratio” value turned out to be 1.04.
As for U7C G9C U10A C13U, the “aptazyme ON/OFF ratio” value worked out at 1.05.
Next, U7C G9C: 1.03; U7C G9A U11G C12G C13U: 1.09.
Next, U7C G9A U11G C12G C13G: 1.21.
To U7C G9A U11G C12G C13A belongs 1.19.
For the variant U7C G9C C12A C13G, the “aptazyme ON/OFF ratio” value came out at 1.07.
For the variant U7C G9C C12A C13A, the “aptazyme ON/OFF ratio” value is 1.05.
Regarding U7C G9C C12A C13U, the “aptazyme ON/OFF ratio” value was determined as 1.02.
Next, U7C G9C U10A C12G C13U: 1.12; U7C G9C U10A C12G C13G: 1.11.
To U7C G9C U10A C12G C13A belongs 1.07.
U7C G9A U10G C12G C13G: the “aptazyme ON/OFF ratio” value was 1.1.
Next, U7C G9A U10G C12G C13A: 1.14; U7C G9A U10G C12G C13U: 1.15; U7C G9A U10G U11C: 1.08.
Consider U7C G9A U10G U11G, for which the “aptazyme ON/OFF ratio” value came out at 1.09.
Next, U7C G9A U10G U11A: 1.06.
On to U7C G9A U10G U11A C12G C13A, for which the “aptazyme ON/OFF ratio” value is 1.15.
Next, U7C G9A U10G U11A C12G C13U: 1.25.
